Experiment [1] addresses T1, human CLDN6, endogenously expressed on cancer cell lines (human, UniProt P56747 1-220).
T1 construct: also called Endogenous CLDN6+; CLDN6 on ARK2, OVCA429, UMUC4 cells
T1 sequence: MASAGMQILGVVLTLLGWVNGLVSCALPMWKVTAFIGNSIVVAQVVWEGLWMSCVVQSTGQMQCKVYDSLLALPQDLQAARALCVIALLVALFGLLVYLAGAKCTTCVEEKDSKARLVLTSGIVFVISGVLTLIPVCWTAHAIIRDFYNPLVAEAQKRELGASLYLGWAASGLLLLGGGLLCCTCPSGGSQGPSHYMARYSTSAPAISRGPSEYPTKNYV
Nature of the experiment: FACS, ARK2 cells, 0.3 ug Ab. A general note: Flow cytometry measures light scatter and fluorescence of single cells or particles in a stream.

For experiment [2], the target named is T1, human CLDN6, endogenously expressed on …. As to the kind of experiment: FACS, ARK2 cells, 1.5 ug Ab.
The target is the same in experiment [3]. As to the kind of experiment: FACS, OVCA429 cells, 1.5 ug Ab.
For experiment [4], the target named is T2, mouse CLDN6 fused to GFP, expressed on engineered HEK293T cells (mouse, UniProt Q9Z262 1-219).
T2 construct: whole, on cells; also called HEK293T-CLDN6-mGFP Artificial CLDN6+ (mouse); murine CLDN6; not shown: GFP tag
T2 sequence (looked up): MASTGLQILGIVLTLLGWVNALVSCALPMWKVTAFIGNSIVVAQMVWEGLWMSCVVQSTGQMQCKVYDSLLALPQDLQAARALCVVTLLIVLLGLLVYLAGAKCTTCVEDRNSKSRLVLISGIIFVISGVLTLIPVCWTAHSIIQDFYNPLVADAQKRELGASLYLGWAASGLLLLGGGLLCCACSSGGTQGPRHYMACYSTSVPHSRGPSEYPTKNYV
Nature of the experiment: FACS, 293T clone with mouse CLDN6.

The values below come from US20220177583A1 (University of California, published 2022).

B1: AB1-3 (antibody, V domains shown)
VH: QVQLVQSGAEVKKPGASVKVSCKASGYTFTTYTMHWVRQAPGQGLEWMGFINPSSGYTDYAQKFQGRVTMTADTSTSTVYMELSSLRSEDTAVYYCANGDYYVAYWGQGTLVTVSS
VL: DIQMTQSPSSLSASVGDRVTITCTASSSVSSTYFHWYQQKPGKAPKLLIYSTSNLASGVPSRFSGSGSGTDYTLTISSLQPEDFATYYCHQYHRSPLTFGQGTKLEIK
notes: Humanized; also called humanized AB 1-3
Take B1: the FACS signal in experiment [1] was found to be 2830; in experiment [2], 10800; in experiment [3], 27500; in experiment [4] it was 89300.

B2: AB1-5 (antibody, V domains shown)
VH: QVQLVQSGAEVKKPGASVKVSCKASGYTFTTYTMHWVRQAPGQGLEWMGFINPSSGYTDYAQKFQGRVTMTADTSTSTVYMELSSLRSEDTAVYYCANGDYYVAYWGQGTLVTVSS
VL: DIQLTQSPSSLSASVGDRVTMTCTASSSVSSTYFHWYQQKPGKAPKLWIYSTSNLASGVPSRFSGSGSGTDYTLTISSMQPEDAATYYCHQYHRSPLTFGQGTKLEIK
notes: Humanized; also called humanized AB 1-5
As to B2, the FACS signal came to 7490 in experiment [1], 22400 in experiment [2], 54300 in experiment [3] and 128000 in experiment [4].

B3: AB1-8 (antibody, V domains shown)
VH: QVQLVQSGAEVKKPGASVKMSCKASGYTFTTYTMHWVRQAPGQGLEWIGFINPSSGYTDYAQKFQGRVTLTADTSTSTVYMELSSLRSEDTAVYYCANGDYYVAYWGQGTLVTVSS
VL: DIQLTQSPSSLSASVGDRVTMTCTASSSVSSTYFHWYQQKPGKAPKLWIYSTSNLASGVPSRFSGSGSGTDYTLTISSMQPEDAATYYCHQYHRSPLTFGQGTKLEIK
notes: Humanized; also called humanized AB 1-8
For B3, the FACS signal in experiment [1] was determined as 5810; in experiment [2] it was 17600; in experiment [3], 66000; in experiment [4], 122000.

B4: AB1-4 (antibody, V domains shown)
VH: QVQLVQSGAEVKKPGASVKVSCKASGYTFTTYTMHWVRQAPGQGLEWMGFINPSSGYTDYAQKFQGRVTMTADTSTSTVYMELSSLRSEDTAVYYCANGDYYVAYWGQGTLVTVSS
VL: DIQLTQSPSSLSASVGDRVTMTCTASSSVSSTYFHWYQQKPGKAPKLLIYSTSNLASGVPSRFSGSGSGTDYTLTISSMQPEDAATYYCHQYHRSPLTFGQGTKLEIK
notes: Humanized; also called humanized AB 1-4
In the case of B4, the FACS signal in experiment [1] is 3640; in experiment [2] it was 10000; in experiment [3], 34600; in experiment [4], 75900.

B5: AB1-6 (antibody, V domains shown)
VH: QVQLVQSGAEVKKPGASVKMSCKASGYTFTTYTMHWVRQAPGQGLEWIGFINPSSGYTDYAQKFQGRVTLTADTSTSTVYMELSSLRSEDTAVYYCANGDYYVAYWGQGTLVTVSS
VL: DIQMTQSPSSLSASVGDRVTITCTASSSVSSTYFHWYQQKPGKAPKLLIYSTSNLASGVPSRFSGSGSGTDYTLTISSLQPEDFATYYCHQYHRSPLTFGQGTKLEIK
notes: Humanized; also called humanized AB 1-6
For the molecule B5, the FACS signal came to 2820 in experiment [1], 7740 in experiment [2], 29900 in experiment [3] and 77600 in experiment [4].

B6: AB4-4 (antibody, V domains shown)
VH: QVQLVQSGAEVKKPGASVKMSCKASGYTFTSYTMHWIRQAPGQGLEWIGYINPSSTYTHYAQKFQGRATLTADTSTSTAYMELSSLRSEDTAVYYCSRGELGGFAYWGQGTLVTVSS
VL: DVVMTQSPLSLPVTLGQPASISCRSSQSLVHSDGNTYLNWYQQRPGQSPRLLIYKVSNRFSGVPDRFSGSGSGTDFTLKISRVEAEDVGVYYCSQSTHVPYTFGQGTKLEIK
notes: Humanized; also called humanized AB 4-4
Regarding B6, the FACS signal in experiment [1] came out at 1050; in experiment [2] it was 1400; in experiment [3], 1200; in experiment [4] it was 741.

B7: AB4-5 (antibody, V domains shown)
VH: QVQLVQSGAEVKKPGASVKMSCKASGYTFTSYTMHWIRQAPGQGQEWIGYINPSSTYTHYAQKFQGRATLTADTSTSTAYMELSSLRSEDTAVYYCSRGELGGFAYWGQGTLVTVSS
VL: DVVMTQSPLSLPVTLGQPASISCRSSQSLVHSDGNTYLNWYQQRPGQSPRLLIYKVSNRFSGVPDRFSGSGSGTDFTLKISRVEAEDVGVYYCSQSTHVPYTFGQGTKLEIK
notes: Humanized; also called humanized AB 4-5
As for B7, the FACS signal amounted to 967 in experiment [1], 1200 in experiment [2], 1350 in experiment [3] and 2000 in experiment [4].

B8: AB4-3 (antibody, V domains shown)
VH: QVQLVQSGAEVKKPGASVKVSCKASGYTFTSYTMHWVRQAPGQGLEWMGYINPSSTYTHYAQKFQGRVTMTADTSTSTVYMELSSLRSEDTAVYYCSRGELGGFAYWGQGTLVTVSS
VL: DVVMTQSPLSLPVTLGQPASISCRSSQSLVHSDGNTYLNWYQQRPGQSPRLLIYKVSNRFSGVPDRFSGSGSGTDFTLKISRVEAEDVGVYYCSQSTHVPYTFGQGTKLEIK
notes: Humanized; also called humanized AB 4-3
As to B8, the FACS signal in experiment [1] stood at 1190; in experiment [2], 1520; in experiment [3], 1160; in experiment [4], 671.

B9: AB11-2 (antibody, V domains shown)
VH: EVQLVESGGGLVQPGGSLRLSCAASGFTFSSFGMHWVRQAPGKGLEWVAYISSDSRTIYYADSVKGRFTISRDNAKNSLYLQMNSLRAEDTAVYYCARDYGRTYEAYWGQGTLVTVSS
VL: DIVMTQSPDSLAVSLGERATINCRASKSVSTSGYSYIHWYQQKPGQPPKLLIYLASNLESGVPDRFSGSGSGTDFTLTISSLQAEDVAVYYCQHSRELPLTFGQGTKLEIK
notes: Humanized; also called humanized AB 11-2
Turning to B9, the FACS signal in experiment [1] came to 1400; in experiment [2], 1940; in experiment [3], 2690; in experiment [4], 7160.

B10: AB11-3 (antibody, V domains shown)
VH: EVQLVESGGGLVQPGGSLRLSCAASGFTFSSFGMHWVRQAPGKGLEWVAYISSDSRTIYYADSVKGRFTISRDNAKNSLYLQMNSLRAEDTAVYYCARDYGRTYEAYWGQGTLVTVSS
VL: DIVLTQSPDSLAVSLGERATINCRASKSVSTSGYSYIHWYQQKPGQPPKLLIYLASNLESGVPDRFSGSGSGTDFTLTISSVQAEDVAVYYCQHSRELPLTFGQGTKLELK
notes: Humanized; also called humanized AB 11-3
On to B10, for which the FACS signal turned out to be 1320 in experiment [1], 1540 in experiment [2], 2200 in experiment [3] and 5520 in experiment [4].

B11: AB11-chim (antibody, V domains shown)
VH: DVQLVESGGGLVQPRGSRKLSCAASGFTFSSFGMHWVRQAPEKGLEWVAYISSDSRTIYYADTVKGRFTISRDNPTNTLFLQMTSLRSEDTAMYYCARDYGRTYEAYWGQGTLVTVSA
VL: DIVLTQSPASLAVSLGQRATISCRASKSVSTSGYSYIHWYQQKPGQPPKLLIYLASNLESGVPARFSGSGSGTDFTLNIHPVEEEDAATYYCQHSRELPLTFGAGTKLELK
notes: Parental antibody prior to humanization ('chim'); also called pre-humanized form of AB11
As for B11, the FACS signal came out at 1320 in experiment [1], 1260 in experiment [2], 2440 in experiment [3] and 5490 in experiment [4].

B12: AB3-3 (antibody, V domains shown)
VH: EVQLLESGGGLVQPGGSMRLSCAASGFTFSNYWMNWVRQAPGKGLEWVAQIRLKSDNYATHYADSVKGRFTISRDDSKNTVYLQMNSLRAEDTGVYYCNDGPPSGCWGQGTLLTVSS
VL: DIQMTQSPSSLSASVGDRVTITCRISENIYSYLAWYQQKPGKAPKLLVYNAKILVEGVPSRFSGSGSGTDFTLTISSLQPEDFGTYYCQHHYTVPWTFGQGTKLEIK
notes: Humanized; also called humanized AB 3-3
Regarding B12, the FACS signal stood at 1160 in experiment [1], 54900 in experiment [2], 88700 in experiment [3] and 23000 in experiment [4].

B13: AB3-4 (antibody, V domains shown)
VH: EVQLLESGGGLVQPGGSMRLSCAASGFTFSNYWMNWVRQAPGKGLEWVAQIRLKSDNYATHYADSVKGRFTISRDDSKNTVYLQMNSLRAEDTGVYYCNDGPPSGYWGQGTLLTVSS
VL: DIQMTQSPSSLSASVGDRVTITCRISENIYSYLAWYQQKPGKAPKLLIYNAKILVEGVPSRFSGSGSGTDFTLTISSLQPEDFATYYCQHHYTVPWTFGQGTKLEIK
notes: Humanized; full-length IgG; also called humanized AB 3-4
With B13, the FACS signal in experiment [1] was found to be 1320; in experiment [2] it was 1460; in experiment [3], 2960; in experiment [4] it was 1520.

B14: AB9-4 (antibody, V domains shown)
VH: QVQLVQSGAEVKKPGASVKMSCKASGYRFTDYNMHWVRQAPGQGLEWIGYINPNNGGTNYAQKFQGRATLTVDTSTSTAYMELSSLRSEDTAVYYCARDYLYFFDCWGQGTLLTVSS
VL: DIQMTQSPSSLSASVGDRVTITCRASQTIGTWLAWYQQKPGKAPKLLIYAAASLADGVPSRFSGSGSGTDFTFTISSLQPEDFVTYYCQQLYSIPRTFGQGTKLEIK
notes: Humanized; also called humanized AB 9-4
B14: the FACS signal was found to be 1120 in experiment [1], 1550 in experiment [2], 1110 in experiment [3] and 1710 in experiment [4].

B15: AB3-chim (antibody, V domains shown)
VH: EVKLEESGGGLVQPGGSMKLSCVASGFTFSNYWMNWVRQSPEKGLEWVAQIRLKSDNYATHYAESVKGRFTISRDDSKRSVYLQMNNLRAEDTGTYYCNDGPPSGCWGQGTTLIVSS
VL: DIQMTQSPASLSASVGETVTITCRISENIYSYLAWYQQKQGKSPQLLVYNAKILVEGVPSRFSGSGSGTQFSLKINSLQPEDFGNYYCQHHYTVPWTFGGGTKLEIK
notes: Parental antibody prior to humanization ('chim'); also called pre-humanized form of AB3
As to B15, the FACS signal in experiment [1] was 17100; in experiment [2], 29100; in experiment [3], 138000; in experiment [4], 67900.
